Measured values reported in paper PMC5779224 (2017).
Like-named read-outs stand apart in the source and are kept apart here. Each block holds one binder with its values, some of them ahead of it.

Experiments:
[1] = molecular target: T1, AnkG 38–855 (AnkG MBD-AI-c protein; MBD + partial AI-c) (rat, UniProt O70511-1 38-855); assay: ITC
T1 chain: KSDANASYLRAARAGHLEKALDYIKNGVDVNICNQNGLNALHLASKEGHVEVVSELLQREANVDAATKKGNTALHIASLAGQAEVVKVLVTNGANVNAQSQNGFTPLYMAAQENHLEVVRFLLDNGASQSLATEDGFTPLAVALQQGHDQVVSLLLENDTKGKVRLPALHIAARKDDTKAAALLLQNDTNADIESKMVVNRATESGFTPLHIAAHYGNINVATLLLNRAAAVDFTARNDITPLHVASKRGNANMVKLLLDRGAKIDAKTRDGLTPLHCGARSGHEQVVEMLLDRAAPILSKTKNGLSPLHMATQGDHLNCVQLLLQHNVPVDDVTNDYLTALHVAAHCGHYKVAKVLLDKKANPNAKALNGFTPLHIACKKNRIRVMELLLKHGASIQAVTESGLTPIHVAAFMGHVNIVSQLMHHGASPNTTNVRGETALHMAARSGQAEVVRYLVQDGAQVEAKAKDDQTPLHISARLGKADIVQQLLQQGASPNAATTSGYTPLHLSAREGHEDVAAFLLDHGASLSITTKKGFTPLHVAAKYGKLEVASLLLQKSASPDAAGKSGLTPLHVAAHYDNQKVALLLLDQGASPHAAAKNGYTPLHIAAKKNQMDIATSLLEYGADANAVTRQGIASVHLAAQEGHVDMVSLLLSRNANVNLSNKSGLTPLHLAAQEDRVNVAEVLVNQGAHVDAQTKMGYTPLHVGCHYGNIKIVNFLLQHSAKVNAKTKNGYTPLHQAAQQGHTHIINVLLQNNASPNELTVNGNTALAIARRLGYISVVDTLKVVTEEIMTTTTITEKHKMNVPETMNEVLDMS

[2] = molecular target: T2, AnkB 28–847 (MBD + partial AI-c) (human, UniProt Q01484-2 28-847); assay: ITC
T2 chain: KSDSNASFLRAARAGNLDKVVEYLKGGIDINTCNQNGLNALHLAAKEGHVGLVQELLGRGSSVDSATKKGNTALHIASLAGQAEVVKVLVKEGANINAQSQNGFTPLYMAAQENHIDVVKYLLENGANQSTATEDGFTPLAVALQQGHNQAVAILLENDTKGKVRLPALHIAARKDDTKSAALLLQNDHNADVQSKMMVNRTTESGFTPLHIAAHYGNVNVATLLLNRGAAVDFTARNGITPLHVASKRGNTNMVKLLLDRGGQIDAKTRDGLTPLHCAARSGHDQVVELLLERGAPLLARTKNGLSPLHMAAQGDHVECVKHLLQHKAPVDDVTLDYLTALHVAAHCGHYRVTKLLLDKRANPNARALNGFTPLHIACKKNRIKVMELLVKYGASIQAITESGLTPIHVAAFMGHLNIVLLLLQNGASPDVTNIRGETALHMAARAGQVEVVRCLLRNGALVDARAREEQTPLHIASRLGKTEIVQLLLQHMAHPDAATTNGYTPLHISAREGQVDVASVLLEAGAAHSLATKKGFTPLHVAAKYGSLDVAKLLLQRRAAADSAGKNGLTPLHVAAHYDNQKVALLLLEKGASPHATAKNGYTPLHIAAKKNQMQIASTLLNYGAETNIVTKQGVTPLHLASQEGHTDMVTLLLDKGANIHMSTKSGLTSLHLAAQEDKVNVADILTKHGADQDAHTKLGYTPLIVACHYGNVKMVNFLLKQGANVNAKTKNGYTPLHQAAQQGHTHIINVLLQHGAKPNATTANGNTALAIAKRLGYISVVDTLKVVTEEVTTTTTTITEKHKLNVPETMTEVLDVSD

[3] = molecular target: T3, AnkG 38–903 (MBD + AI-c + AI-b) (rat, UniProt O70511-1 38-903); assay: ITC; too weak to be reliably fit
T3 chain: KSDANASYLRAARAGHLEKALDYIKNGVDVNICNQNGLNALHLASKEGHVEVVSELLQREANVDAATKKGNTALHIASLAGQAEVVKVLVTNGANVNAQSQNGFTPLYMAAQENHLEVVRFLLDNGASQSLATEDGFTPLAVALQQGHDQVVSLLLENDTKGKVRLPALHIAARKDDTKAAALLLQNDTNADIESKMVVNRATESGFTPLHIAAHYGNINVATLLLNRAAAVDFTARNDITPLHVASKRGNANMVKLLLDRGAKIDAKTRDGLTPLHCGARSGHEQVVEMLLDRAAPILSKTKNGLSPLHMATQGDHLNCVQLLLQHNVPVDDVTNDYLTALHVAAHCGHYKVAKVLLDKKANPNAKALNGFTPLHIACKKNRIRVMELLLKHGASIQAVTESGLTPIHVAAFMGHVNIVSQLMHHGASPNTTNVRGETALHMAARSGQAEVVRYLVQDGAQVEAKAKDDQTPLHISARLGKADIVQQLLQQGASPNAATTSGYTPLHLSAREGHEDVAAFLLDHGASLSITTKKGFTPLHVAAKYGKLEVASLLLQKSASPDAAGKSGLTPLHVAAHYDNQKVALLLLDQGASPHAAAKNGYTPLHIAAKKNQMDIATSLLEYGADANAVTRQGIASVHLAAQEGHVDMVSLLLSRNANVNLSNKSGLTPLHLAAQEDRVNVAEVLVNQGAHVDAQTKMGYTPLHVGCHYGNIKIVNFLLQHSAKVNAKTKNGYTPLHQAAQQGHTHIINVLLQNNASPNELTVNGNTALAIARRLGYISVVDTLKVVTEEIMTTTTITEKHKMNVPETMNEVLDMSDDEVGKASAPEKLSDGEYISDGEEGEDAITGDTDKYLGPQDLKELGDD

[4] = molecular target: T4, AnkB_MBD R1 charge reversal mutant ('EAAE') (human, UniProt Q01484-2 28-827, 37RAAR40 to 37EAAE40); assay: FP
T4 sequence: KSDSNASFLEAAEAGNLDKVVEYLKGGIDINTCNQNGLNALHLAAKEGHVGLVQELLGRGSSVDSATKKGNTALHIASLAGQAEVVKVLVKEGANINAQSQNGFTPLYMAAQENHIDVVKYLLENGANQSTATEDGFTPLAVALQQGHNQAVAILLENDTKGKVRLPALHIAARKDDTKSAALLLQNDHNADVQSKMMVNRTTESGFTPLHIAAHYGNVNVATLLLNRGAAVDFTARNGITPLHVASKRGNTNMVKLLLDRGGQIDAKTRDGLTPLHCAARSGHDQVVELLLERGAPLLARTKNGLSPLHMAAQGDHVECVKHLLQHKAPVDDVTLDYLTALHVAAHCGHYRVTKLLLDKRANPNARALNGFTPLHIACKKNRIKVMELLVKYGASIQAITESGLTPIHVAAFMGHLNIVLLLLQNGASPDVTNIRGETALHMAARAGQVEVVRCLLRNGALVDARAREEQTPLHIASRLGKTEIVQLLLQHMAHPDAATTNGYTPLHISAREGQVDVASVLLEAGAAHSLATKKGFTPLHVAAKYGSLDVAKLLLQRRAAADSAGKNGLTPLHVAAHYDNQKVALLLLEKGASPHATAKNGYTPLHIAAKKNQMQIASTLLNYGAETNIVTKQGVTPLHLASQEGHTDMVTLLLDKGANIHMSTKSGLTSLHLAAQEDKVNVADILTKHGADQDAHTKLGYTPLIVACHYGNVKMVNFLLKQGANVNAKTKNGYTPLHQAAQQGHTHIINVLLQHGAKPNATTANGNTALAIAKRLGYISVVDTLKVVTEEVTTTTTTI

[5] = molecular target: T5, AnkB_MBD (AnkB ANK repeats only, aa 28–827) (human, UniProt Q01484-2 28-827); assay: ITC
T5 chain: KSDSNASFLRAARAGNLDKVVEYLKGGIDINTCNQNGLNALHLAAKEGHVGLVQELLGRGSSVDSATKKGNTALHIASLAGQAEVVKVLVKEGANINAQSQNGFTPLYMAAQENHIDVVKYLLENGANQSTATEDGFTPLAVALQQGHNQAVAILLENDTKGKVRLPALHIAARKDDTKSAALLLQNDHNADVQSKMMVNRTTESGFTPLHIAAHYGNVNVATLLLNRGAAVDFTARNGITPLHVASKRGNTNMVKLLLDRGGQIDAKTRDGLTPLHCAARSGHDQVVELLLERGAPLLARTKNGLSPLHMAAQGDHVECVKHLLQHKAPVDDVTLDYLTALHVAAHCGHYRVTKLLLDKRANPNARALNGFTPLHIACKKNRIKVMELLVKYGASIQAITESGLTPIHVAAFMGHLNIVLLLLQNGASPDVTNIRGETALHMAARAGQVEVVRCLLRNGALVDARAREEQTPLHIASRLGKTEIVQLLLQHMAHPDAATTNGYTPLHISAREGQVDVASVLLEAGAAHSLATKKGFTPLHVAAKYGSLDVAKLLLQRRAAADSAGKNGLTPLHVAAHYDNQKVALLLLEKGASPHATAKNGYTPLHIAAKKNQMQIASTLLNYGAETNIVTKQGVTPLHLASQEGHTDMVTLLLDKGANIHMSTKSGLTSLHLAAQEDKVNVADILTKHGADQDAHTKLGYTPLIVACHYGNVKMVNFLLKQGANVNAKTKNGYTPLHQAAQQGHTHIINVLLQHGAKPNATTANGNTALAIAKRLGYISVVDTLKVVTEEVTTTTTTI

[6] = molecular target: T5, AnkB_MBD (AnkB ANK repeats only, aa …); assay: ITC
AnkB_MBD Asn595Ala = molecular target: T6, AnkB_MBD Asn595Ala (human, UniProt Q01484-2 28-827, Asn595Ala); assay: ITC
T6 sequence: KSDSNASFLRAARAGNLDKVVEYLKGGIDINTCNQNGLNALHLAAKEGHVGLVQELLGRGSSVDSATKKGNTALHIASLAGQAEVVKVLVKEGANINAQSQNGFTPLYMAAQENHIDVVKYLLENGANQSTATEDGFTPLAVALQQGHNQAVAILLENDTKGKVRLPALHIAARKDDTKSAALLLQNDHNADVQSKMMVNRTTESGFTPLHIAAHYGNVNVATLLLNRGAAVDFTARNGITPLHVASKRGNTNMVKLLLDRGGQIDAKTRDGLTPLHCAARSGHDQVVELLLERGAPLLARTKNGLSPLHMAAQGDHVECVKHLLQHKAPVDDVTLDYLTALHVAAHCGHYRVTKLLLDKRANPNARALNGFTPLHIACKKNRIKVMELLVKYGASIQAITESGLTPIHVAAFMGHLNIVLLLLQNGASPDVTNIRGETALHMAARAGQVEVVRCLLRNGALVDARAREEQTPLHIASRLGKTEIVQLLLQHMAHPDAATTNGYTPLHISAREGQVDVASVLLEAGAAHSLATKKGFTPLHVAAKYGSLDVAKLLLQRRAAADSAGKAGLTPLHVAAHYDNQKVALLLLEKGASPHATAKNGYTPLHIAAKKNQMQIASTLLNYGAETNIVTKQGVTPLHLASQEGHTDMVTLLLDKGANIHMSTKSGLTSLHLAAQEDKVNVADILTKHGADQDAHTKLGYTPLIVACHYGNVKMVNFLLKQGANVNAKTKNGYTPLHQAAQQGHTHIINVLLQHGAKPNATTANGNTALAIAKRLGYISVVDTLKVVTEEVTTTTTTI

B2: AnkB_AI-a peptide (aa 1623–1635) (peptide)
peptide: HPPIVSEEDISVG
Kd [4]: 43800 nM

B4: AnkB_AI-c (aa 828–852) (domain or fragment)
chain: TEKHKLNVPETMTEVLDVSDEEGDD
Kd [6]: 360 nM
Kd (AnkB_MBD Asn595Ala): 2400 nM

Continued, values first:

Kd [1]: 610 nM
Kd [2]: 780 nM
Kd [3]: ~45000 nM
B1: E-cadherin (aa 734–884) (domain or fragment)
chain: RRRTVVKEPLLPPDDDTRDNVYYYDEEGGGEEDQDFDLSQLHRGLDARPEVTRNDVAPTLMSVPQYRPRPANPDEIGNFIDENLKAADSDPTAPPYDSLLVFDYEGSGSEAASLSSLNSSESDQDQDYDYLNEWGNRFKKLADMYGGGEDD

Kd [5]: 470 nM
B3: AnkR/B_CT Chimera (peptide)
chain: CADQYWNEVAVIDAIPLAATEHDTMLEMSDMQVWSAGDHPPIVSEEDIS
